Legend:
[1] = molecular target: PorZ from P. gingivalis (P. gingivalis W83); experiment: other fluorescence titration; microscale fluorescence (initial fluorescence, Monolith NT.115): 20 nM NT-647-labelled PorZ titrated with PorU (3 nM to 100 μM) in PBS, 25°C, without A-LPS; 1:1 binding model
[2] = molecular target: PorZ from P. gingivalis (P. gingivalis W83); experiment: other fluorescence titration; microscale fluorescence (initial fluorescence, Monolith NT.115): 20 nM NT-647-labelled PorZ with 1 × 10^5 EU/ml A-LPS from W83, titrated with PorU (3 nM to 100 μM) in PBS, 25°C; 1:1 binding model

B1: PorU sortase from P. gingivalis, hexahistidine-tagged (enzyme)
chain: QRAMGKTADRSLMASGHWVKIRVDASGVYRLTDEQLRANGFSDPSKVGVFGYGGGVLPEDLSRITTDDLPPVPVLRQGNALYFYAVGPVTWFYNPAKTTMEHTVNTYSTHGYYFLSDAAGAPLQMSQYTGGGASAEALIDYYDELMLHEQELYSPKESGRDLYGESFSAVNTRTVKFPLRGNTRSSGELGTVFSYIAKARSAGGGREMSLSANGILIFSDPFSMTSNEVSNSYLAGKKRRLYRSTPMNSLVNELRLDANYSMTGDAVNLDFIEVATQNDLRYDGAPMHIRRFSNLPVLGGESCRFVISEVPESLVVLQANSSLTASLVPVKTVGDKTIEFVAPPKGQDRRTINTFYAVDLSQASAPEILGAVPNQNLHGEEIPDLIIVSTQALLPEADRLATYRREKNGLKVLVVLQEQVFNEFSGGTPDATAYRLFAKMFYDRWKANAPVGETFPMQMLLFGDGAHDNRKVSVAWQKPYLQQTEFLLTFQAVNSTNVNSYVTDDYFGLLDDQPASVNIGWRNYNMAVGRFPVRTPAEARIAVDKTIRYEEDRESGAWRIRACFAADNGDKHATETSRLIDTVKRYAPAIMPVRAFQDVYPHVIENGLHSIPGAKKKMLETLQSGIILLNYAGHGGPAGWSDEHLLTLNDIHNFNYKHMPIWITATCDFANYDSQTTSAGEEVFLHEKSGTPIMFSTTRVVYNTQNEKINGFMLRRMFEKAKDGRYRTMGEIIRSAKQGMLSTVFPDSINQLSFFLMGDPSVRMNLPTHKVQLTAINGQDPEGQYGTIMLKSLERVALKGKVTDEKGTFDETFSGKVFLTVFDGRKKMTALEEEGNDLSLVYYDYPNVMYAGIAEVKDGLFETSFIVPKDVNYSEHEGRINLYAYNESTKAEAMGVDFSIRVQPGIPDEVTEDNTPPEIISCFLNDSTFRSGDEVNPTPLFMAEVFDLNGINITGSGVGHDITLCIDGRADLTYNLNAYFTSSATDAGVGTILFMIPALAEGDHTARLTVWDIFNNAVHHDFSFRVVDGIAPDVADVILFPNPVRESATFRIFHNRPGSDLNVVVEIYDFTGRLVNSLPVKTYSSSYGEPIEIKWDLTSKYGVKIGNGFYLYRCVVNSPGGQTASMAKKMIVVAQ
Kd [1]: 3400 nM | Kd [2]: 700 nM

— article PMC8545088
